In patent US20240123070A1 (SHANGHAI GENBASE BIOTECHNOLOGY, published 2024):

B1: B8.2.4 TCR mutant β97V-T (TCR, V domains shown)
V domain 1: AQKITQTQPGMFVQEKEAVTLDCTYDTSDPSYGLFWYKQPSSGEMIFLIYQGSYDQQNATEGRYSLNFQKARKSANLVISASQLGDSAMYFCAMRERTGTASKLTFGTGTRLQVTL
V domain 2: DVKVTQSSRYLVKRTGEKVFLECVQDMDHENMFWYRQDPGLGLRLIYFSYDVKMKEKGDIPEGYSVSREKKERFSLILESASTNQTSMYLCASSQTTPPQHFGDGTRLSILE
B2: B8.2.4 TCR mutant β98P-I (TCR, V domains shown)
V domain 1: AQKITQTQPGMFVQEKEAVTLDCTYDTSDPSYGLFWYKQPSSGEMIFLIYQGSYDQQNATEGRYSLNFQKARKSANLVISASQLGDSAMYFCAMRERTGTASKLTFGTGTRLQVTL
V domain 2: DVKVTQSSRYLVKRTGEKVFLECVQDMDHENMFWYRQDPGLGLRLIYFSYDVKMKEKGDIPEGYSVSREKKERFSLILESASTNQTSMYLCASSQTVIPQHFGDGTRLSILE
B3: B8.2.4 TCR mutant β98P-K (TCR, V domains shown)
V domain 1: AQKITQTQPGMFVQEKEAVTLDCTYDTSDPSYGLFWYKQPSSGEMIFLIYQGSYDQQNATEGRYSLNFQKARKSANLVISASQLGDSAMYFCAMRERTGTASKLTFGTGTRLQVTL
V domain 2: DVKVTQSSRYLVKRTGEKVFLECVQDMDHENMFWYRQDPGLGLRLIYFSYDVKMKEKGDIPEGYSVSREKKERFSLILESASTNQTSMYLCASSQTVKPQHFGDGTRLSILE
B4: B8.2.4 TCR mutant β98P-W (TCR, V domains shown)
V domain 1: AQKITQTQPGMFVQEKEAVTLDCTYDTSDPSYGLFWYKQPSSGEMIFLIYQGSYDQQNATEGRYSLNFQKARKSANLVISASQLGDSAMYFCAMRERTGTASKLTFGTGTRLQVTL
V domain 2: DVKVTQSSRYLVKRTGEKVFLECVQDMDHENMFWYRQDPGLGLRLIYFSYDVKMKEKGDIPEGYSVSREKKERFSLILESASTNQTSMYLCASSQTVWPQHFGDGTRLSILE
B5: B8.2.4 TCR mutant β98P-L (TCR, V domains shown)
V domain 1: AQKITQTQPGMFVQEKEAVTLDCTYDTSDPSYGLFWYKQPSSGEMIFLIYQGSYDQQNATEGRYSLNFQKARKSANLVISASQLGDSAMYFCAMRERTGTASKLTFGTGTRLQVTL
V domain 2: DVKVTQSSRYLVKRTGEKVFLECVQDMDHENMFWYRQDPGLGLRLIYFSYDVKMKEKGDIPEGYSVSREKKERFSLILESASTNQTSMYLCASSQTVLPQHFGDGTRLSILE
B6: B8.2.4 TCR mutant β98P-R (TCR, V domains shown)
V domain 1: AQKITQTQPGMFVQEKEAVTLDCTYDTSDPSYGLFWYKQPSSGEMIFLIYQGSYDQQNATEGRYSLNFQKARKSANLVISASQLGDSAMYFCAMRERTGTASKLTFGTGTRLQVTL
V domain 2: DVKVTQSSRYLVKRTGEKVFLECVQDMDHENMFWYRQDPGLGLRLIYFSYDVKMKEKGDIPEGYSVSREKKERFSLILESASTNQTSMYLCASSQTVRPQHFGDGTRLSILE
B7: B8.2.4 TCR mutant β97V-W (TCR, V domains shown)
V domain 1: AQKITQTQPGMFVQEKEAVTLDCTYDTSDPSYGLFWYKQPSSGEMIFLIYQGSYDQQNATEGRYSLNFQKARKSANLVISASQLGDSAMYFCAMRERTGTASKLTFGTGTRLQVTL
V domain 2: DVKVTQSSRYLVKRTGEKVFLECVQDMDHENMFWYRQDPGLGLRLIYFSYDVKMKEKGDIPEGYSVSREKKERFSLILESASTNQTSMYLCASSQTWPPQHFGDGTRLSILE
B8: B8.2.4 TCR mutant β98P-D (TCR, V domains shown)
V domain 1: AQKITQTQPGMFVQEKEAVTLDCTYDTSDPSYGLFWYKQPSSGEMIFLIYQGSYDQQNATEGRYSLNFQKARKSANLVISASQLGDSAMYFCAMRERTGTASKLTFGTGTRLQVTL
V domain 2: DVKVTQSSRYLVKRTGEKVFLECVQDMDHENMFWYRQDPGLGLRLIYFSYDVKMKEKGDIPEGYSVSREKKERFSLILESASTNQTSMYLCASSQTVDPQHFGDGTRLSILE
B9: B8.2.4 TCR mutant β98P-H (TCR, V domains shown)
V domain 1: AQKITQTQPGMFVQEKEAVTLDCTYDTSDPSYGLFWYKQPSSGEMIFLIYQGSYDQQNATEGRYSLNFQKARKSANLVISASQLGDSAMYFCAMRERTGTASKLTFGTGTRLQVTL
V domain 2: DVKVTQSSRYLVKRTGEKVFLECVQDMDHENMFWYRQDPGLGLRLIYFSYDVKMKEKGDIPEGYSVSREKKERFSLILESASTNQTSMYLCASSQTVHPQHFGDGTRLSILE
B10: B8.2.4 TCR mutant β98P-V (TCR, V domains shown)
V domain 1: AQKITQTQPGMFVQEKEAVTLDCTYDTSDPSYGLFWYKQPSSGEMIFLIYQGSYDQQNATEGRYSLNFQKARKSANLVISASQLGDSAMYFCAMRERTGTASKLTFGTGTRLQVTL
V domain 2: DVKVTQSSRYLVKRTGEKVFLECVQDMDHENMFWYRQDPGLGLRLIYFSYDVKMKEKGDIPEGYSVSREKKERFSLILESASTNQTSMYLCASSQTVVPQHFGDGTRLSILE
B11: B8.2.4 TCR mutant β97V-Y (TCR, V domains shown)
V domain 1: AQKITQTQPGMFVQEKEAVTLDCTYDTSDPSYGLFWYKQPSSGEMIFLIYQGSYDQQNATEGRYSLNFQKARKSANLVISASQLGDSAMYFCAMRERTGTASKLTFGTGTRLQVTL
V domain 2: DVKVTQSSRYLVKRTGEKVFLECVQDMDHENMFWYRQDPGLGLRLIYFSYDVKMKEKGDIPEGYSVSREKKERFSLILESASTNQTSMYLCASSQTYPPQHFGDGTRLSILE
B12: B8.2.4 TCR mutant β98P-F (TCR, V domains shown)
V domain 1: AQKITQTQPGMFVQEKEAVTLDCTYDTSDPSYGLFWYKQPSSGEMIFLIYQGSYDQQNATEGRYSLNFQKARKSANLVISASQLGDSAMYFCAMRERTGTASKLTFGTGTRLQVTL
V domain 2: DVKVTQSSRYLVKRTGEKVFLECVQDMDHENMFWYRQDPGLGLRLIYFSYDVKMKEKGDIPEGYSVSREKKERFSLILESASTNQTSMYLCASSQTVFPQHFGDGTRLSILE
B13: B8.2.4 TCR mutant β98P-T (TCR, V domains shown)
V domain 1: AQKITQTQPGMFVQEKEAVTLDCTYDTSDPSYGLFWYKQPSSGEMIFLIYQGSYDQQNATEGRYSLNFQKARKSANLVISASQLGDSAMYFCAMRERTGTASKLTFGTGTRLQVTL
V domain 2: DVKVTQSSRYLVKRTGEKVFLECVQDMDHENMFWYRQDPGLGLRLIYFSYDVKMKEKGDIPEGYSVSREKKERFSLILESASTNQTSMYLCASSQTVTPQHFGDGTRLSILE
B14: B8.2.4 TCR mutant β98P-Q (TCR, V domains shown)
V domain 1: AQKITQTQPGMFVQEKEAVTLDCTYDTSDPSYGLFWYKQPSSGEMIFLIYQGSYDQQNATEGRYSLNFQKARKSANLVISASQLGDSAMYFCAMRERTGTASKLTFGTGTRLQVTL
V domain 2: DVKVTQSSRYLVKRTGEKVFLECVQDMDHENMFWYRQDPGLGLRLIYFSYDVKMKEKGDIPEGYSVSREKKERFSLILESASTNQTSMYLCASSQTVQPQHFGDGTRLSILE
B15: B8.2.4 TCR mutant β98P-E (TCR, V domains shown)
V domain 1: AQKITQTQPGMFVQEKEAVTLDCTYDTSDPSYGLFWYKQPSSGEMIFLIYQGSYDQQNATEGRYSLNFQKARKSANLVISASQLGDSAMYFCAMRERTGTASKLTFGTGTRLQVTL
V domain 2: DVKVTQSSRYLVKRTGEKVFLECVQDMDHENMFWYRQDPGLGLRLIYFSYDVKMKEKGDIPEGYSVSREKKERFSLILESASTNQTSMYLCASSQTVEPQHFGDGTRLSILE
B16: B8.2.4 TCR mutant β98P-A (TCR, V domains shown)
V domain 1: AQKITQTQPGMFVQEKEAVTLDCTYDTSDPSYGLFWYKQPSSGEMIFLIYQGSYDQQNATEGRYSLNFQKARKSANLVISASQLGDSAMYFCAMRERTGTASKLTFGTGTRLQVTL
V domain 2: DVKVTQSSRYLVKRTGEKVFLECVQDMDHENMFWYRQDPGLGLRLIYFSYDVKMKEKGDIPEGYSVSREKKERFSLILESASTNQTSMYLCASSQTVAPQHFGDGTRLSILE
B17: B8.2.4 TCR mutant β98P-G (TCR, V domains shown)
V domain 1: AQKITQTQPGMFVQEKEAVTLDCTYDTSDPSYGLFWYKQPSSGEMIFLIYQGSYDQQNATEGRYSLNFQKARKSANLVISASQLGDSAMYFCAMRERTGTASKLTFGTGTRLQVTL
V domain 2: DVKVTQSSRYLVKRTGEKVFLECVQDMDHENMFWYRQDPGLGLRLIYFSYDVKMKEKGDIPEGYSVSREKKERFSLILESASTNQTSMYLCASSQTVGPQHFGDGTRLSILE
B18: B8.2.4 TCR mutant β98P-S (TCR, V domains shown)
V domain 1: AQKITQTQPGMFVQEKEAVTLDCTYDTSDPSYGLFWYKQPSSGEMIFLIYQGSYDQQNATEGRYSLNFQKARKSANLVISASQLGDSAMYFCAMRERTGTASKLTFGTGTRLQVTL
V domain 2: DVKVTQSSRYLVKRTGEKVFLECVQDMDHENMFWYRQDPGLGLRLIYFSYDVKMKEKGDIPEGYSVSREKKERFSLILESASTNQTSMYLCASSQTVSPQHFGDGTRLSILE
B19: B8.2.4 TCR mutant β98P-M (TCR, V domains shown)
V domain 1: AQKITQTQPGMFVQEKEAVTLDCTYDTSDPSYGLFWYKQPSSGEMIFLIYQGSYDQQNATEGRYSLNFQKARKSANLVISASQLGDSAMYFCAMRERTGTASKLTFGTGTRLQVTL
V domain 2: DVKVTQSSRYLVKRTGEKVFLECVQDMDHENMFWYRQDPGLGLRLIYFSYDVKMKEKGDIPEGYSVSREKKERFSLILESASTNQTSMYLCASSQTVMPQHFGDGTRLSILE
B20: B8.2.4 TCR mutant β98P-N (TCR, V domains shown)
V domain 1: AQKITQTQPGMFVQEKEAVTLDCTYDTSDPSYGLFWYKQPSSGEMIFLIYQGSYDQQNATEGRYSLNFQKARKSANLVISASQLGDSAMYFCAMRERTGTASKLTFGTGTRLQVTL
V domain 2: DVKVTQSSRYLVKRTGEKVFLECVQDMDHENMFWYRQDPGLGLRLIYFSYDVKMKEKGDIPEGYSVSREKKERFSLILESASTNQTSMYLCASSQTVNPQHFGDGTRLSILE
B21: B8.2.4 TCR mutant β98P-C (TCR, V domains shown)
V domain 1: AQKITQTQPGMFVQEKEAVTLDCTYDTSDPSYGLFWYKQPSSGEMIFLIYQGSYDQQNATEGRYSLNFQKARKSANLVISASQLGDSAMYFCAMRERTGTASKLTFGTGTRLQVTL
V domain 2: DVKVTQSSRYLVKRTGEKVFLECVQDMDHENMFWYRQDPGLGLRLIYFSYDVKMKEKGDIPEGYSVSREKKERFSLILESASTNQTSMYLCASSQTVCPQHFGDGTRLSILE

Target: KRAS G13D antigen (G13D-RT6, SEQ ID NO: 20) loaded on Lovo-DPA0301:DPB0501 cells (human)
Assay: cell-based or functional assay

| Binder | TCR Mut RLU/WT RLU [ratio] |
| --- | --- |
| B1 | 0.98 |
| B2 | 0.33 |
| B3 | 0.47 |
| B4 | 0.81 |
| B5 | 0.67 |
| B6 | 0.73 |
| B7 | 0.52 |
| B8 | 0.8 |
| B9 | 0.6 |
| B10 | 0.63 |
| B11 | 0.54 |
| B12 | 0.96 |
| B13 | 0.47 |
| B14 | 0.45 |
| B15 | 0.99 |
| B16 | 0.5 |
| B17 | 0.73 |
| B18 | 0.94 |
| B19 | 0.83 |
| B20 | 0.41 |
| B21 | 1.11 |
